Data from the Human Domainome abundance scans (Beltran et al. 2025).

B1: POU domain, class 3, transcription factor 2, residues 262 to 338; numbered along this chain, P20265 (parent)
chain: EDTPTSDDLEQFAKQFKQRRIKLGFTQADVGLALGTLYGNVFSQTTICRFEALQLSFKNMCKLKPLLNKWLEEADSS
B2: RUN and FYVE domain-containing protein 1, residues 639 to 698; numbered along this chain, Q96T51 (parent)
chain: WLKDDEATHCRQCEKEFSISRRKHHCRNCGHIFCNTCSSNELALPSYPKPVRVCDSCHTL

Variants of: B1
Assay: abundance fitness (aPCA) (normalised: wild type 0, dead -1); higher = more abundant; growth selection in yeast, the domain comes from the species named
Conditions: Homo sapiens

Abundance fitness: each site, then its substitutions
T3: D -0.324; C 0.009; I 0.094; K -0.023; F -0.142; L -0.086; A -0.365; G -0.342; E -0.218
D2: C -0.124; F -0.133; V -0.176; T 0.039; Q 0.054; H 0.015; R -0.03; E -0.047; K -0.031; S 0.013; P -0.153; I 0.023
E1: P 0.085; N 0.124; M 0.05; D -0.014; Y -0.177; T -0.006; Q -0.088; I -0.066; L -0.109; C -0.035; S -0.164; K -0.105; G -0.031; W -0.191; F 0.231; A -0.108

Variants of: B2
Assay: as above
Conditions: Homo sapiens

Abundance fitness of substitutions, site by site:
Y47: S -0.081; M -0.134; E -0.062; Q -0.14; N 0.019; K -0.262; R -0.345; W -0.382; A 0.014; I -0.197; P -0.433; G -0.045; D 0; V -0.026; L -0.069; H 0.09; F -0.05
L42: F 0.034; M -0.046; P -0.606; I 0.214; R 0.227; T -0.071; W -0.014; Q 0.295; Y -0.151; N -0.317; A 0.11; S 0.096; G -0.026; D 0.184; H 0.118; C 0.045; V 0.092
S46: D 0.365; H -0.004; C -0.133; Q 0.009; P 0.069; F -0.01; N 0.252; Y -0.2; M 0.086; R 0.19; L 0.151; W 0.077; K 0.181; E 0.402; A 0.16; V -0.265; G 0.243
E41: G -0.522; T -0.11; Y -0.126; W -0.384; P -0.418; Q -0.056; L -0.18; R -0.151; H -0.195; V -0.063; M -0.134; I -0.335; N -0.184; K -0.038; C -0.11; S -0.155; D -0.173; A -0.182
A43: Q -0.008; M 0.021; V 0.008; G -0.124; P 0.001; C -0.128; I 0.019; T -0.045; W -0.405; R -0.054; Y -0.366; L 0.058; K -0.071; S -0.188; N 0.034
S39: Y -0.428; W -0.657
V53: I -0.385
L60: H -0.293; M -0.194; T -0.087; I 0.094; V -0.202; N -0.126; W -0.366; F -0.163; Q 0.101; S -0.067; C -0.625; E 0.031; G 0.229; A 0.036; Y -0.422; P -0.404; K 0.023
P45: V -0.13; S 0.027; N 0.017; Q 0.162; M -0.073; L -0.19; T 0.047; Y -0.425; H -0.022; I -0.162; C -0.325; G -0.204; D -0.035; E -0.081; R 0.009; A -0.277; K 0.091
P48: N -0.324; F -0.818; K -0.178; W -0.484; M -0.309; A -0.167; Q -0.051; R -0.308; E 0.118; I -0.419; Y -0.582; H -0.192
L44: G -0.166; N -0.388; C -0.389; H -0.295; T -0.127; F -0.196; Q -0.3; M -0.077; K -0.384; P -0.326; E -0.376; A -0.3; S -0.454; D 0.138; V -0.236; Y -0.271; W -0.375; R -0.445
C54: Y -0.845; R -0.278; G -0.731
P50: S -0.253; L -0.085; V -0.074; G -0.118; T -0.233; R -0.185; N -0.043; W -0.549; D -0.295; Q -0.219; K 0.023; F -0.211; E -0.078; H -0.347; C -0.128; M -0.162; A 0.05; Y -0.219; I -0.807
K49: V -0.14; I -0.32; M -0.298; E -0.083; N 0.012; S -0.09; F -0.342; C -0.133; H -0.11; P -0.72; Y -0.34; Q -0.192; D -0.001; W -0.327; T -0.212; R 0.016; A -0.327; G -0.057
H58: G -0.203; L -0.114; P -0.667; N -0.242; C -0.365; T -0.226; D -0.495; A -0.1; E -0.062; I -0.157; V 0.037; M -0.109; F -0.105; S -0.179; Q 0.065; K -0.091; R -0.147; W 0.022
N40: A -0.163; P -0.387; D -0.382; Q -0.001; R 0.153; K 0.078; L -0.424; G -0.03; E -0.172; M -0.021; I -0.223; W -0.85; H -0.067; Y -0.906; T -0.08; C -0.933; S -0.004
S56: K 0.232; I 0.136; P 0.24; Q 0.319; E 0.331; Y 0.188; W 0.033; T 0.284; D 0.097; C 0.03; G 0.3; H 0.355; F 0.271; A 0.21; M 0.165; N 0.246
T59: I -0.033; F -0.207; S 0.052; N -0.058; E 0.026; Y -0.183; C -0.051; G 0.161; M 0.019; V 0.127; K 0.144; P -0.281; D 0.062; H -0.148; L -0.048; A 0.263; Q 0.328
D55: T -0.602; Y -0.31
V51: D -0.879; G -0.55; E -0.301; R -0.474; W -0.535; P -0.403; A -0.047; N -0.695; I -0.249; H -0.945; T 0.184; Y -0.562; K -0.636; F -0.571; Q -0.17; S -0.345; L -0.353; C -1.01; M -0.244
C57: A -0.756; I -0.88; F -0.794; D -0.619; T -0.467; L -0.475; V -0.665; Q -0.409; S -0.716; K -0.613; Y -0.828; R -0.673; E -0.711; W -0.682; P -0.697; G -0.53; H -0.957
